In a protein production outcome set (Wang et al. 2014):

Experiment: label from the status in PepcDB records

Sequence	protein production
MKKIATATIATAGIATFGLAHQDADAAENNNGYNPNDPYSYSYTYTIDQQGNYHYEWQGNWSPSQAQQGGQQNTGNQAVNNTQSNNNYNYNYNNNQSNQNTQSYTANNNAGGGLGASYSTSDRNVKVTTQNAPTTQSTSSNASSSSSSEALAGKSSGGSNLYTAGQCTYYVYDKVGGKIGSTWGNANNWATAAAADGYTVNNTPKAGAVMQTSQGAYGHVAYVESVNDDGSVKVSEMNYNGGPGVVSSRTISAGQAGSYNYIS	failed
MPYVPTPKPVVDRMLELADVDETDVLYDLGSGDGRIVIRAARTHGARGVGIEIDPDLVKKARKNAKEAGVADLVEFRQGDLFEADISEATVVTLYLLPSVNQKLRPILFEQLSPGTPVVSHDFDMGRWAPDRTVDLEGDTVYRWTIPEEIPEDLDELEHHHHHH	not failed
MKPMEAAMGLIRFCLLFLALATPVNAAKLFLTTEVYPPYNLQASDGSVHGVYFDQLKIVLQDTDTDYEVAVMPWARAIALATTQAMHCVFATARTPEREKLFKWVAPIHTDRNILVARREANIEASSLEDARRYRVGTQRGDYTEALLEKLGFPQVDVGADFEITLNKLKLGRIDLMPMSESTLKSLPANSFKEVITLSRQQLGLACNKTVPDQIIAKLQARLDKLIADGTQQQIFDRYSLVSP	failed
PRTVKELTVSAGDNLIITLPDNEVELKAFVAPAPPVETTYNYEWNLISHPTDYQGEIKQGHKQTLNLSQLSVGLYVFKVTVSSENAFGEGFVNVTVKPAR	not failed
MQFIPPILCKMNGRRQLNMHQQTKRLITISMLSAVAFILMFIKFPIPFLPPYLTLDFGDVPALLATFILGPVAGLIVEFIKNLLNFLFNIGDPVGPVANFLAASSFLLTAYFVTKYKDKIKSQIVGLSIATVVMTIVLSILNYFVLLPLYGMIMNLSDVVENVKIVIVSGVIPFNIIKGIVISIIFILLYNRLKNVLPK	failed
MSSGKDFFVHSHALCESENIGKDSRVWAFAHILPGARLGSECNVCDNVFIENDVIIGDRVTLKCGVQVWDGITIEDDVFIGPNATFTNDLFPRSKVYPQTFARTIIRKGASLGANCTILPGITIGINAMVGAGAVVTRSVPPNAIVVGNPAKIIGYVDAKPVNANSETRAEQKAPGVTATSVKNVTLHTMNEVADIRGSLSAGEFERSVPFKTERYFLVYDVPTAETRGEHAHRICHQFLVAVKGSVHVVADDGVNREEFILDKPNQGIHLPPMTWGIQYRYSQDAVLLVFASHYYDAGDYIRNYEEFKSLIANAELEHHHHHH	not failed
PGGPEEQWQRAIHERGEAVCPTCNVVTRKTLVGLKKHMEVCQKLQDALKCQHCRKQFKSKAGLNYHTMAEHSAKPSDAEASEGGE	not failed
MARSVVVSAEAVYSHEGEYVGDHVLVDEGLVKSISRGEPHVSVGKRVAVKGFLLPPLVDAHLHMRSLGASFRIVNLKGASSPEEVAKRLAAANSPIAVGRGWNEEEFRPGSRLDRRILDSYLGEKPALAVRICGHVAVANSAFIRESGVDKLFPNLVDRERGLLLEDAVSYAVSVAMKTYNNEELLRDAASALASVGVFGVSSMACSEEEVRALSLIGDALEVRVACYLRRGVEPPPKRAGARWSIVGVKLFADGSLGGRTAYLRRPYISGENEGWRGLKLLSSRDIAEEAVSNSHRGLATAVHAIGDAALDEVLEGFSNAISRGVEPGMLRVEHASLAWPNQIDRLASLRVWTVVQPLFRVSDWWLESRVGSDMLQAAYPFASMLRAGVKLALSTDAPVETYDPAETFKAAVGLCSSRLCRESESLTPRETLKLYTLNSALASGGPVAWLGRLRRGAPALFAVANVDVLNSGRKELEKLKFRGLNLAK	failed
MKTRINYAKASPEAFKAVMALENYVQSSGLEHRFIHLIKLRASIINGCAFCVDMHVKESRHDGLSEQWINLMSVWRESPVYTEQERALLGWVDAVTKIAETGAPDDAFETLRAHFSDEEIVKITVAIGAINTWNRIAVGFRSQHPVEAAAKAA	not failed
MVLHVMLGEVVTKFLNMNNGVGEGGSQQRELHGKRKLFRGNDFAFSIARMAVAQICESVEVNPYQESQTREGVRFSSFQESALDTLTDVAVQYIQSIGKTAHLYANLAGRVDGNSLDILQALEDLGSGLGFAGVSDTDHCLADSGVVKDIIRYTGEAEEIPFVYSLPRFPFSKEKKPAPSFSEVGAEPPDEHIPVWLPAFPETELCDRSEETNAATIEGEIPSKENGSSLPSMQLSFDGGGRLEIHKSSKDVGESTEAVVEGNLFLTAPLRFVEKNVSPVVRPLELSNEVVRTNHVPDKHVRNNHHIPILEASAPSDKINNKNWLAISKDVEKVDVARKELTLVRFKIGTTKRSMCLAKNRSFQEEGWFQEGEDKREKTSEIKEKRERIDSQLSTQM	failed
MGHAALDAVLPDGGWPRRALTELLLPAHGIGEIALLLPTLARMTGAGSRVVLVAPPYVPYAPAWQAGGVALQQLEIVQAEPRDALWAFEQCLRSGACAAVLGWPQTGDARALRRLQVAADSGNCCAFALRDRRHAVNASPLEHHHHHH	failed
MTLRAARPEFLDLFPAGAEARRLADGFTWTEGPVYVPARSAVIFSDVRQNRTWAWSDDGQLSPEMHPSHHQNGHCLNKQGHLIACSHGLRRLERQREPGGEWESIADSFEGKKLNSPNDVCLAPDGSLWFSDPTYGIDKPEEGYGGEMELPGRWVFRLAPDGTLSAPIRDRVKPNGLAFLPSGNLLVSDTGDNATHRYCLNARGETEYQGVHFTVEPGKTDGLRVDAGGLIWASAGDGVHVLTPDGDELGRVLTPQTTSNLCFGGPEGRTLYMTVSTEFWSIETNVRG	failed
MKVKIGLKCSDCEDINYSTTKNAKTNTEKLELKKFCPRENKHTLHKEIKLKS	failed
MGTEATEQVSWGHYSGDEEDAYSAEPLPELCYKADVQAFSRAFQPSVSLTVAALGLAGNGLVLATHLAARRAARSPTSAHLLQLALADLLLALTLPFAAAGALQGWSLGSATCRTISGLYSASFHAGFLFLACISADRYVAIARALPAGPRPSTPGRAHLVSVIVWLLSLLLALPALLFSQDGQREGQRRCRLIFPEGLTQTVKGASAVAQVALGFALPLGVMVACYALLGRTLLAARGPERRRALRVVVALVAAFVVLQLPYSLALLLDTADLLAARERSCPASKRKDVALLVTSGLALARCGLNPVLYAFLGLRFRQDLRRLLRGGSCPSGPQPRRGCPRRPRLSSCSAPTETHSLSWDN	failed
STALIQLYSLCEHAFHRHLGSGSDSRQTIERYSSPKVRRLLQTLRCFKPEEVHTQADGLRRMRHQVDQADFNRLSHTLESKCRMVDQMDQPPTETRALVATLEQILHTTEDRQTNRSAARVTPTPTPAHAKPKPSSGANTAQPRTRRRVY	failed
MMSTHYIAGQWLAGQGETLESLDPVGQGVVWSGRGADATQVDAAVCAAREAFPAWARRPLEQRIELLERFAATLKSRADELARVIGEETGKPLWESATEVTSMVNKVAISVQAFRERTGEKSGPLADATAVLRHKPHGVVAVFGPYNFPGHLPNGHIVPALLAGNCVVFKPSELTPKVAELTLKAWIQAGLPAGVLNLVQGGRETGVALAAHRGLDGLFFTGSSRTGNLLHSQFGGQPQKILALEMGGNNPLVVEEVADLDAAVYTIIQSAFISAGQRCTCARRLLVPQGAWGDALLARLVAVSATLRVGRFDEQPAPFMGAVISLSAAEHLLKAQEHLIGKGAQPLLAMTQPIDGAALLTPGILDVSAVAERPDEEFFGPLLQVIRYSDFAAAIREANATQYGLAAGLLSDSRERFEQFLVESRAGIVNWNKQLTGAASSAPFGGIGASGNHRPSAYYAADYCAYPVASLESPSVSLPATLTPGIS	not failed
MLIEILEFASILALVAVLTLTVMLQDIFFIDINKQYTETRIGTIIFSIRMLFGAWVIFVTETTIIAISKVTAIQLIILLLIWVCSKYVQKTRENWLITIVAFVIYGVGTYIYIQFAFKGY	failed
MKHIHIIGIGGTFMGGIAAIAKEAGFKVSGCDAKMYPPMSTQLEALGIGVHEGFDAAQLEEFQADIYVIGNVARRGMDVVEAILNRGLPYISGPQWLAENVLHHHWVLGVAGTHGKTTTASMLAWVLEYAGLAPGFLIGGVPENFGVSARLPQTPRQDPNSKSPFFVIEADEYDTAFFDKRSKFVHYRPRTAVLNNLEFDHADIFADLGAIQTQFHHLVRTVPSEGLIVCNGQQQSLQDTLDKGCWTPVEKFGTGHGWQIGEVNADGSFDVLLDGKKAGHVAWDLMGGHNRMNALAVIAAARHAGVDVQTACEALGAFKNVKRRMEIKGTANGITVYDDFAHHPTAIETTIQGLRQRVGGARILAVLEPRSNTMKLGTMKSALPASLKEADQVFCYAGGADWDVAEALAPLGCRLRVGKDFDTFVAEIVKNARTGDHILVMSNGGFGGIHTKLLDALR	not failed
MDNITNESDNLIQIFSHNPLALISCIILGIGLLFTFASRQFILVRVLLGNVSFIKQRILGVIFGIVGALLLLFATGNLNL	failed
SKQDASRNAAYTVDCEDYVHVVEFNPFENGDSGNLIAYGGNNYVVIGTCTFQEEEADVEGIQYKTLRTFHHGVRVDGIAWSPETRLDSLPPVIKFCTSAADMKIRLFTSDLQDKNEYKVLEGHTDFINGLVFDPKEGQEIASVSDDHTCRIWNLEGVQTAHFVLHSPGMSVCWHPEETFKLMVAEKNGTIRFYDLLAQQAILSLESEQVPLMSAHWCLKNTFKVGAVAGNDWLIWDITRSSYPQNKRPVHMDRACLFRWSTISENLFATTGYPGKMASQFQIHHLGHPQPILMGSVAVGSGLSWHRTLPLCVIGGDHKLLFWVTEV	not failed
MDEAYKMRCDWYHHGELVSGGESESKFSQLNDEVVELYQAAEYLDEEFAGMVHLGEIVERDDKKEDEFLAKLADAETPLYPSCFNHSKLSAIMSLFTLKTKNGWSDKSHNDLLETLPEMLLEDNVLHSSLYEVKKFLKSFDMG	failed
MTEIQRLLSETIDDLNIREKRDNRPRFSISFIRKHPGLFIAMYAAWFATLAVMLQSETLVGSVWLLVVLFIAFNGFFFFDIAPRYHYNDIDVLDLRVCYNGEWYNTRFVPPTLIETILQSPQVDNEHKVQLQKMVARKGELSFYDIFTLARAEASR	failed
VYTLMTTRSHDQYNTTLYGLDDRYRGVFGQRRVLFMNEQDIQEAGFQADQWVDIESIYSDGLKRIVRSFKIVPYNIPRGSMAAYYPETNPLVALSSHDKYAKIPASKSIPVILHPGQAPEHFNLAAPVDPEHANG	failed
GAAGPWRLPIGNSVVASSPPVLQANAETWLDFTDLVFIDPVGTGYSRFVASGDEVRKHFYAVEGDISAMAVVIRRWLEKNDRLVSPKYLAGESYGGIRGPKVVDNLQTKQGVGVNGLILVSPVLDFRDLSGSSLLQYAARLPSMTAVARQQKGKVNRADLADVESYARSEFLTDLVKGEADKEATTRLADRVSALTGIDKTVSRRLAGRFDTREFQREFDRDRGRVTGRFDGAKLGLDPFPDSSAAHFGDPSADSLIAPLTSAAVQLTRSTLNWKPDGSYELLNGSVAEQWDFGRGRQPLESTTQLREILSVDPSLQVLVTGGLFDLAAPYFGTQMVLDQLPPTLAEKRVKFVVYPGGHMFYAEDAARQSLHDEVKAMMK	failed
MDKVYLTWWQVDRAIFALAEKLREYKPDVIIGVARGGLIPAVRLSHILGDIPLKVIDVKFYKGIDERGEKPVITIPIHGDLKDKRVVIVDDVSDTGKTLEVVIEEVKKLGAKEIKIACLAMKPWTSVVPDYYVFRTEKWIVFPWEEFPVIEKE	not failed
MNHVAVIGGGIIGASWAVVFARRGLEVTIVERDAACLAGLPARLAGMIERSASLLGAGEQPGDVAARIGATDALAAAVGRADYVQEAVSENLALKRTLFAELDALAPAHALLASSTSTYGASQFTEALAGRARCLVAHPMTPPHLSPVVEMAASAWTDPQVLAGAEAFMRSLGQHPVRIRKEIPGFVLNRLQGALLMEMFRVIADDVISPADADALISQGLGLRWATLGPLEGVDLNAPGGIADYLQRYGHIFNDMAVGQGLPAPVDAELISALDGAMRAALPLERLEAKRGWRDRAIAGVRVALHDYTGEKPLEHHHHHH	failed
